# Source: article PMC9932110, “RanBP9 controls the oligomeric state of CTLH complex assemblies” (The Journal of Biological Chemistry, 2023)
# Several values for one entry are separate records, joined by “and”; a condition that tells them apart may be missing. Identical values can stand only once.
# T1: Wdr26 (mouse, UniProt Q8C6G8 1-641)
# T1 chain: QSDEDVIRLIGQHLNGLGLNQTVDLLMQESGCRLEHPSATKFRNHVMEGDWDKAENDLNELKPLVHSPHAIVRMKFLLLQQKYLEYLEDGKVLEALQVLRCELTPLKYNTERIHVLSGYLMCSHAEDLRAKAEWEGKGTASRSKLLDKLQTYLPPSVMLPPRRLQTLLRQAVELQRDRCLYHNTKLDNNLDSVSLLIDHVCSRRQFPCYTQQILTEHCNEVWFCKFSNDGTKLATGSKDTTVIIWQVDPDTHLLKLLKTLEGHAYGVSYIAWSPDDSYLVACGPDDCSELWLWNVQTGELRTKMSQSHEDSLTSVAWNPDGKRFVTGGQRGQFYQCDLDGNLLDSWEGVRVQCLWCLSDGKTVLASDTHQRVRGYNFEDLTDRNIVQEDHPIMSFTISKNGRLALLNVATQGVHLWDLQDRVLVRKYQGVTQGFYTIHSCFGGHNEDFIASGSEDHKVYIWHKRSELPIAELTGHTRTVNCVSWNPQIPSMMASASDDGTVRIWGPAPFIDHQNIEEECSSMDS
# B1: muskelin (natural protein, rat, UniProt Q99PV3 1-735, looked up)
# chain: MAAGGAVAAAPECRLLPYALHKWSSFSSTYLPENILVDKPNDQSSRWSSESNYPPQYLILKLERPAIVQNITFGKYEKTHVCNLKKFKVFGGMNEENMTELLSSGLKNDYNKETFTLKHKIDEQMFPCRFIKIVPLLSWGPSFNFSIWYVELSGIDDPDIVQPCLNWYSKYREQEAIRLCLKHFRQHNYTEAFESLQKKTKIALEHPMLTDMHDKLVLKGDFDACEELIEKAVNDGLFNQYISQQEYKPRWSQIIPKSTKGDGEDNRPGMRGGHQMVIDVQTETVYLFGGWDGTQDLADFWAYSVKENQWTCISRDTEKENGPSARSCHKMCIDIQRRQIYTLGRYLDSSVRNSKSLKSDFYRYDIDTNTWMLLSEDTAADGGPKLVFDHQMCMDSEKHMIYTFGGRILTCNGSVDDSRASEPQFSGLFAFNCQCQTWKLLREDSCNAGPEDIQSRIGHCMLFHSKNRCLYVFGGQRSKTYLNDFFSYDVDSDHVDIISDGTKKDSGMVPMTGFTQRATIDPELNEIHVLSGLSKDKEKREENVRNSFWIYDIVRNSWSCVYKNDQAAKENLSKSLQEEEPCPRFAHQLVYDELHKVHYLFGGNPGKSCSPKMRLDDFWSLKLCRPSKDYLLRHCKYLIRKHRFEEKAQMDPLSALKYLQNDLYITVDHSDPEETKEFQLLASALFKSGSDFTALGFSDVDHTYAQRTQLFDTLVNFFPDSMTPPKGNLVDLITL
# notes: muskelin, rat, 735 residues
# B2: Wdr26 (natural protein)
# chain: T1 chain
# modifications: Supplement: residues 1-101 deleted. Paper gives 625 residues, matching E0CYH4 (CTLH 136-195) rather than the 641-aa Q8C6G8 canonical form (CTLH 136-211). Forms a concentration-dependent oligomer …
# How the values were obtained:
# [1] = target: the molecule itself; experiment: SEC-MALS; Superose 6 10/300 GL, SEC buffer; molar mass of single proteins and of complexes assembled from purified proteins
# [2] = target: T1, Wdr26; experiment: as above; conditions: both partners purified
# [3] = target: T1, Wdr26; experiment: SEC-MALS; Wdr26 alone, dilution series from four batches, Superose 6 10/300 GL; molar mass at the peak against peak concentration, one-site model; dimer to higher oligomers; saturation not reached; conditions: both partners purified
Binder,stoichiometry N [1],stoichiometry N [2],Kd [3],stoichiometry N [3]
B1,4,–,–,–
B2,–,2,10 µM,≥ 8 and 12
